Columns and labels:
[1] = target: T1, human GPRC5D protein (human, UniProt Q9NZD1 1-345); assay: FACS on MM.1S cells
T1 construct: also called hGPRC5D; CHO-K1-hGPRC5D^hi

[2] = target: T1, human GPRC5D protein; assay: FACS on RPMI-8226 cells
[3] = target: T2, T cell surface CD3 (human, UniProt P07766 23-207; P04234 22-171; P09693 23-182); assay: FACS on human CD3+ T cells
T2 construct: CD3 is a complex of several chains; also called CD3^+ T cells

[4] = target: T1, human GPRC5D protein; assay: cell-based or functional assay
[5] = target: T1, human GPRC5D protein; assay: FACS on NCI-H929 cells
[6] = target: T2, T cell surface CD3; assay: cell-based or functional assay

T1 sequence (Q9NZD1 whole entry): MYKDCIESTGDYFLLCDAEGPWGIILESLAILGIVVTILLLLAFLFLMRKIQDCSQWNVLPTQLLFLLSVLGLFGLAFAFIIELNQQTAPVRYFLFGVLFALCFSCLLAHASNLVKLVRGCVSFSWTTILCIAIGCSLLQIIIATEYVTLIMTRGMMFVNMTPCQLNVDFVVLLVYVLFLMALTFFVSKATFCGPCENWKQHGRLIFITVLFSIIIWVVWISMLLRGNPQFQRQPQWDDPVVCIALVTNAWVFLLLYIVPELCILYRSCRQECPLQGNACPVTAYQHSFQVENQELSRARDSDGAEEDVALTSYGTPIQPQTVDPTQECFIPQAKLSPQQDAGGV
T2 sequence (P07766 23-207 limits assumed, chain 1 of 3): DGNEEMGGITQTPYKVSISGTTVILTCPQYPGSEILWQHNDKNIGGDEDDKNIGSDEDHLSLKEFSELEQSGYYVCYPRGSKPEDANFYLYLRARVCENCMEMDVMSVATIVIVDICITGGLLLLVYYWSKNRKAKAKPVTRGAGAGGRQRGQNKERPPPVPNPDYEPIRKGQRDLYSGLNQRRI
T2 sequence (P04234 22-171 limits assumed, chain 2 of 3): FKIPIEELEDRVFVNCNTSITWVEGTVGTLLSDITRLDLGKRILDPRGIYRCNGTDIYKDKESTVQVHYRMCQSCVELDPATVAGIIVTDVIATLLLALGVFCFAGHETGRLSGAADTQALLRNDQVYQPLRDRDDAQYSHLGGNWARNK
T2 sequence (P09693 23-182 limits assumed, chain 3 of 3): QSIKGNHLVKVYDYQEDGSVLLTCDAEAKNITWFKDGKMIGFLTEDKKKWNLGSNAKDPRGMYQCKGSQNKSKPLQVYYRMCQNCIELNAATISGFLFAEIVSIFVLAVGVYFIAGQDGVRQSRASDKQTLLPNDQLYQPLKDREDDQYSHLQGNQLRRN

EC50 [1]	EC50 [2]	EC50 [3]	Top(MFI) [3]	Lysis EC50(nM), MM.1S target cells with human PBMC [4]	Lysis EC50(nM), NCI-H929 target cells with human PBMC [4]	Lysis EC50(nM), RPMI-8226 target cells with human PBMC [4]	EC50 [5]	CD25/CD4 EC50(nM), activation of T cells in the presence of MM.1S [6]	CD25/CD8 EC50(nM), activation of T cells in the presence of MM.1S [6]	CD69/CD4 EC50(nM), activation of T cells in the presence of MM.1S [6]	CD69/CD8 EC50(nM), activation of T cells in the presence of MM.1S [6]	Binder
3750 pM	15900 pM	48900 pM	54700 MFI	0.00534 nM	0.00592 nM	0.0163 nM	3040 pM	0.00999 nM	0.00879 nM	0.00738 nM	0.00458 nM	GC35 (bispecific antibody, human IgG1, kappa, L234A L235A, also called anti-GPRC5D/anti-CD3 bispecific antibody GC35) heavy: EVQLVQSGAEVVKPGASVKMSCKASGYTFTNYVMHWVKQAPGQGLEWMGYFNPYNDGTNYNEKFKGRVTLTSDTSANTAYMELSSLRSEDTAVYYCARGGVRRYFDVWGQGTTVTVSSASTKGPSVFPLAPSSKSTSGGTAALGCLVKDYFPEPVTVSWNSGALTSGVHTFPAVLQSSGLYSLSSVVTVPSSSLGTQTYICNVNHKPSNTKVDKKVEPKSCDKTHTCPPCPAPEAAGGPSVFLFPPKPKDTLMISRTPEVTCVVVDVSHEDPEVKFNWYVDGVEVHNAKTKPREEQYNSTYRVVSVLTVLHQDWLNGKEYKCKVSNKALAAPIEKTISKAKGQPREPQVCTLPPSREEMTKNQVSLSCAVKGFYPSDIAVEWESNGQPENNYKTTPPVLDSDGSFFLVSKLTVDKSRWQQGNVFSCSVMHEALHNHYTQKSLSLSPGK light: DIQMTQSPSSLSASVGDRVTITCRASQDIGSNLNWLQLGPGGAIKRLIYATFSLDSGVPSRFSGSRSGSDYTLTISSLQPEDFVDYYCQQYANFPPTFGGGTKVEIKRTVAAPSVFIFPPSDEQLKSGTASVVCLLNNFYPREAKVQWKVDNALQSGNSQESVTEQDSKDSTYSLSSTLTLSKADYEKHKVYACEVTHQGLSSPVTKSFNRGEC ELVVTQEPSLTTSPGGTVTLTCRSSTGAVTTSNYANWVQQKPGQAPRGLIGGTNKRAPGTPARFSGSLLGGKAALTITGVQPEDEAEYYCALWYSNLWVFGGGTKLTVLGGGGSGGGGSGGGGSEVQLVESGGGLVQPGGSLRLSCAASGFTFNTYAMNWVRQAPGKGLEWVARIRSKYNNYATYYADSVKDRFTISRDDSKNTAYLQMNNLKTEDTAMYYCVRHGNFGNSYVSWFAYWGQGTLVTVSSGEPKSSDKTHTCPPCPAPEAAGGPSVFLFPPKPKDTLMISRTPEVTCVVVDVSHEDPEVKFNWYVDGVEVHNAKTKPREEQYNSTYRVVSVLTVLHQDWLNGKEYKCKVSNKALAAPIEKTISKAKGQPREPQVYTLPPCREEMTKNQVSLWCLVKGFYPSDIAVEWESNGQPENNYKTTPPVLDSDGSFFLYSKLTVDKSRWQQGNVFSCSVMHEALHNRYTQKSLSLSPGK
3710 pM	–	37900 pM	38000 MFI	0.0335 nM	0.0146 nM	0.136 nM	16700 pM	0.0596 nM	0.0448 nM	0.0438 nM	0.0226 nM	GC39 (bispecific antibody, human IgG1, kappa, L234A L235A, also called anti-GPRC5D/anti-CD3 bispecific antibody GC39) heavy: EVQLVESGGGLVQPGGSRRVSCAASGFTFSSFGMHWVRQAPGKGLEWVAYISRGSSTIYYADTVKGRFTISRDNAKNSLYLQMNSLRAEDTAVYYCARSGYGSSSYYFDYWGQGTTVTVSSASTKGPSVFPLAPSSKSTSGGTAALGCLVKDYFPEPVTVSWNSGALTSGVHTFPAVLQSSGLYSLSSVVTVPSSSLGTQTYICNVNHKPSNTKVDKKVEPKSCDKTHTCPPCPAPEAAGGPSVFLFPPKPKDTLMISRTPEVTCVVVDVSHEDPEVKFNWYVDGVEVHNAKTKPREEQYNSTYRVVSVLTVLHQDWLNGKEYKCKVSNKALAAPIEKTISKAKGQPREPQVCTLPPSREEMTKNQVSLSCAVKGFYPSDIAVEWESNGQPENNYKTTPPVLDSDGSFFLVSKLTVDKSRWQQGNVFSCSVMHEALHNHYTQKSLSLSPGK light: EIVLTQSPATLSASPGERATMSCRASSSIRSSYLHWYQQKPGQSPRLWIYSTSNLASGVPARFSGSGSGTDYTLTISSLEPEDAAVYYCQQFSGYPLTFGGGTKVEIKRTVAAPSVFIFPPSDEQLKSGTASVVCLLNNFYPREAKVQWKVDNALQSGNSQESVTEQDSKDSTYSLSSTLTLSKADYEKHKVYACEVTHQGLSSPVTKSFNRGEC ELVVTQEPSLTTSPGGTVTLTCRSSTGAVTTSNYANWVQQKPGQAPRGLIGGTNKRAPGTPARFSGSLLGGKAALTITGVQPEDEAEYYCALWYSNLWVFGGGTKLTVLGGGGSGGGGSGGGGSEVQLVESGGGLVQPGGSLRLSCAASGFTFNTYAMNWVRQAPGKGLEWVARIRSKYNNYATYYADSVKDRFTISRDDSKNTAYLQMNNLKTEDTAMYYCVRHGNFGNSYVSWFAYWGQGTLVTVSSGEPKSSDKTHTCPPCPAPEAAGGPSVFLFPPKPKDTLMISRTPEVTCVVVDVSHEDPEVKFNWYVDGVEVHNAKTKPREEQYNSTYRVVSVLTVLHQDWLNGKEYKCKVSNKALAAPIEKTISKAKGQPREPQVYTLPPCREEMTKNQVSLWCLVKGFYPSDIAVEWESNGQPENNYKTTPPVLDSDGSFFLYSKLTVDKSRWQQGNVFSCSVMHEALHNRYTQKSLSLSPGK
